Reference: the supplement of paper PMC10126150
± gives the standard deviation of the averaged measurements.

System: ATP
Assay: switch fluorescence ratio, 500 uM ATP over buffer (Cy3 cluster intensity, sum of 5 cycles each) (fold (ratio)); higher = stronger signal-on switching upon ATP binding; sequences stand for … in TCGTCGGCAGCGTCAGATGTGTATAAGAGACAGTTTTTTTTTTTTTTTTTTTTTTTTT…TC
Settings: aptamer strand: ATP DNA aptamer (quencher-CACCTGGGGGAGTATTGCGGAGGAAGG + anchor), 100 nM annealed; ATP concentration: 500 uM
In short: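 Cy3-labelled switching-strand clusters on a modified Illumina MiSeq flow-cell were annealed to 100 nM quencher-labelled ATP aptamer, imaged in selection buffer, then imaged after 15 min with 500 uM ATP at 22 °C. Five buffer/ATP cycles ran, with NaOH stripping and re-annealing between them. The fluorescence ratio is summed target-cycle over summed buffer-cycle Cy3 intensity per cluster, averaged per switch-domain sequence. Clusters outside 100-1000 RFU were excluded.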
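Also: ATP exposure 15 min at 22 °C before imaging.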

ATTTTTTAAA
switch fluorescence ratio: 0.994 ± 0.027

GGGTAGGAAG
switch fluorescence ratio: 0.971 ± 0.024

ACAGGGAAAG
switch fluorescence ratio: 1.04 ± 0.034

CCAGGGAGTG
switch fluorescence ratio: 1.04 ± 0.015

CGTTAGCGGG
switch fluorescence ratio: 1 ± 0.018

AGGGTTTCTC
switch fluorescence ratio: 0.989 ± 0.0011

TCGGAATGTG
switch fluorescence ratio: 1.01 ± 0.045

CAGGTCATGC
switch fluorescence ratio: 1.02 ± 0.058

ACTCGTAATC
switch fluorescence ratio: 3.04 ± 0.48

TTTGATATTG
switch fluorescence ratio: 0.994 ± 0.038

AAATGTGGGG
switch fluorescence ratio: 0.976 ± 0.049

ACCGGGTGGG
switch fluorescence ratio: 1.12 ± 0.15

AGTTTGGGGC
switch fluorescence ratio: 0.984 ± 0.045

AGTTTTAACG
switch fluorescence ratio: 0.974 ± 0.073

TTGGAGAGGG
switch fluorescence ratio: 1.06 ± 0.058

CGTTCTAGTG
switch fluorescence ratio: 0.974 ± 0.011

TTGGTTGGAC
switch fluorescence ratio: 1.028 ± 0.0092

TTTAAAATAT
switch fluorescence ratio: 0.998 ± 0.046

TCGGGAATTT
switch fluorescence ratio: 1.067 ± 0.0091

CGTAGAGCGG
switch fluorescence ratio: 1 ± 0.074

ATTATGTGGC
switch fluorescence ratio: 0.9803 ± 0.0086

ATCATTCAAA
switch fluorescence ratio: 1.008 ± 0.0073

TCTGGTCCGG
switch fluorescence ratio: 0.997 ± 0.015

CTAGGTTGAG
switch fluorescence ratio: 0.983 ± 0.019

TCGTTGCAGG
switch fluorescence ratio: 1.05 ± 0.092

CCTATTACA
switch fluorescence ratio: 1.03 ± 0.026

TCATGGGCTT
switch fluorescence ratio: 1.01 ± 0.0059

GTGGTAATGG
switch fluorescence ratio: 0.953 ± 0.021

TTCAGAGTCA
switch fluorescence ratio: 0.985 ± 0.042

AACGAGTGTC
switch fluorescence ratio: 1.09 ± 0.11

ACAGGTAAA
switch fluorescence ratio: 1.02 ± 0.028

TACGGAAGGA
switch fluorescence ratio: 1.1 ± 0.021

TGGGTCATTG
switch fluorescence ratio: 0.973 ± 0.043

TCTTTACTAC
switch fluorescence ratio: 1.08 ± 0.081

AAAGGTTGAT
switch fluorescence ratio: 1.01 ± 0.011

CGTATGGATA
switch fluorescence ratio: 0.998 ± 0.028

ATGGGGCTGA
switch fluorescence ratio: 0.993 ± 0.029

GTTTAGAGCG
switch fluorescence ratio: 1.026 ± 0.01

TTCTGGGGAT
switch fluorescence ratio: 1.009 ± 0.0014

GGGAGTATGG
switch fluorescence ratio: 0.977 ± 0.027

GGCCGAGGAG
switch fluorescence ratio: 0.998 ± 0.012

TTTCCTCTCG
switch fluorescence ratio: 1.54 ± 0.76

GAGGGCCGGT
switch fluorescence ratio: 1.03 ± 0.032

GATAGAAAGA
switch fluorescence ratio: 0.964 ± 0.025

GGGGTGGTTT
switch fluorescence ratio: 0.951 ± 0.037

GGAGGGCGGT
switch fluorescence ratio: 0.9948 ± 0.0081

AAGCATGCTC
switch fluorescence ratio: 1.09 ± 0.03

GTGGTAGCAC
switch fluorescence ratio: 1.01 ± 0.025

TTAGACGAGC
switch fluorescence ratio: 0.986 ± 0.031

AAATGGTGGG
switch fluorescence ratio: 1.13 ± 0.16

AAATCAAGTG
switch fluorescence ratio: 0.97516 ± 1.6e-05

GGATTCGTAA
switch fluorescence ratio: 0.998 ± 0.01

CAAAGTGTGG
switch fluorescence ratio: 0.989 ± 0.054

GTTTCTTTGT
switch fluorescence ratio: 0.986 ± 0.049

AATCGGCTGG
switch fluorescence ratio: 1.01 ± 0.011

CTGATTTTTT
switch fluorescence ratio: 1.02 ± 0.045

AGCACTTTTC
switch fluorescence ratio: 1.0192 ± 0.00082

ATGTGTGGGG
switch fluorescence ratio: 1.01 ± 0.063

GTATCCAGGG
switch fluorescence ratio: 1.13 ± 0.036

ATAGACGAGG
switch fluorescence ratio: 0.9809 ± 0.0011

GGGAAGGCGT
switch fluorescence ratio: 1.12 ± 0.14

GCCTCCCGGG
switch fluorescence ratio: 1.136 ± 0.0053

ACGGATGGCT
switch fluorescence ratio: 0.984 ± 0.023

ATCAAATCGG
switch fluorescence ratio: 1.01 ± 0.025

TCTGGAGGGG
switch fluorescence ratio: 1.022 ± 0.0073

ATGAAGACTA
switch fluorescence ratio: 0.9962 ± 0.0014

CGGACGGGGG
switch fluorescence ratio: 0.999 ± 0.036

ATTTGCGGTG
switch fluorescence ratio: 1.01 ± 0.019

TTTATGAGAC
switch fluorescence ratio: 1.02 ± 0.065

TTGTGCTTAA
switch fluorescence ratio: 0.989 ± 0.052

TAGGATTACT
switch fluorescence ratio: 1.02 ± 0.014

TGATTCACTG
switch fluorescence ratio: 0.9907 ± 0.0075

GCGTCTTGGG
switch fluorescence ratio: 0.96 ± 0.025

TTTTGGGAAC
switch fluorescence ratio: 1.02 ± 0.037

TCGCGTGTTG
switch fluorescence ratio: 1.017 ± 0.0032

TATGGCGCAT
switch fluorescence ratio: 0.993 ± 0.043

TTCTGTTTCT
switch fluorescence ratio: 0.995 ± 0.011

TATTGGGCAT
switch fluorescence ratio: 0.985 ± 0.018

TGAGAAAGAG
switch fluorescence ratio: 2.15 ± 2

TGAAAATTCA
switch fluorescence ratio: 1.05 ± 0.077

ATTAGGGTTT
switch fluorescence ratio: 1.04 ± 0.061

TTTGTTTAGG
switch fluorescence ratio: 1.01 ± 0.04

AGTATCAGAA
switch fluorescence ratio: 1 ± 0.042

AGAGCCGCTG
switch fluorescence ratio: 1.02 ± 0.068

GGCCTGCTCG
switch fluorescence ratio: 0.988 ± 0.029

GAAGGGAGCG
switch fluorescence ratio: 0.984 ± 0.045

AAGGTGAAGG
switch fluorescence ratio: 1.02 ± 0.035

AAATGCGGCC
switch fluorescence ratio: 1 ± 0.067

TTCACAGCCA
switch fluorescence ratio: 1.09 ± 0.043

GGTTTTTGAG
switch fluorescence ratio: 0.9564 ± 0.0045

AAATTCAATA
switch fluorescence ratio: 1.002 ± 0.0033

AAGGCTTTTT
switch fluorescence ratio: 0.9935 ± 0.0077

TAATTCCGGG
switch fluorescence ratio: 1.01 ± 0.013

GAGGTTGATC
switch fluorescence ratio: 0.983 ± 0.056

AGTAACGCGG
switch fluorescence ratio: 0.979 ± 0.014

TGGTTTTTGT
switch fluorescence ratio: 1.1 ± 0.2

TGTGGGATAC
switch fluorescence ratio: 1.2 ± 0.015

GGGGGATGAA
switch fluorescence ratio: 0.991 ± 0.025

ATAATGTGAA
switch fluorescence ratio: 1.03 ± 0.017

GGGAGCTGTT
switch fluorescence ratio: 1.06 ± 0.11

CACTGGCGAT
switch fluorescence ratio: 1.06 ± 0.054

GATAATGGTA
switch fluorescence ratio: 1.008 ± 0.005

TCACAGTCTA
switch fluorescence ratio: 1.04 ± 0.058

GCATTGTAGG
switch fluorescence ratio: 0.972 ± 0.041

CGGGTAATTT
switch fluorescence ratio: 1.03 ± 0.019

GGGCTTTATA
switch fluorescence ratio: 1.02 ± 0.014

AAAAAATGCT
switch fluorescence ratio: 1.01 ± 0.014

TTTAGAGTTC
switch fluorescence ratio: 0.997 ± 0.021

GGGTAGAGGT
switch fluorescence ratio: 1.003 ± 0.0062

ACATACAATT
switch fluorescence ratio: 1.23 ± 0.091

AGGATGTGCT
switch fluorescence ratio: 0.9655 ± 0.006

GCGGTAGGTT
switch fluorescence ratio: 1.01 ± 0.013

GATGTCAGGC
switch fluorescence ratio: 0.996 ± 0.01

TTTAGGGAAT
switch fluorescence ratio: 1 ± 0.013

ATGCTGATGT
switch fluorescence ratio: 1.016 ± 0.0011

GCAGGGTTTC
switch fluorescence ratio: 0.997 ± 0.024

CGGGTGGTCG
switch fluorescence ratio: 0.8742 ± 0.0063

CAGCTAGGTT
switch fluorescence ratio: 1.31 ± 0.39

TTGAGGATTG
switch fluorescence ratio: 1 ± 0.018

GCTCTATACG
switch fluorescence ratio: 1.049 ± 0.003

AGTATCCCTA
switch fluorescence ratio: 0.998 ± 0.021

CCAAATGAAT
switch fluorescence ratio: 1.03 ± 0.025

ATCGTGGGTT
switch fluorescence ratio: 0.97919 ± 0.00077

TTAATATGCT
switch fluorescence ratio: 0.997 ± 0.049

ACTTTGGTGC
switch fluorescence ratio: 1.03 ± 0.026

TAGCGCTTTA
switch fluorescence ratio: 1.01 ± 0.017

TTCTGTTGGT
switch fluorescence ratio: 1.02 ± 0.087

TGGCGGTGCT
switch fluorescence ratio: 0.997 ± 0.028

GGGTTTTTCC
switch fluorescence ratio: 1.1 ± 0.18

CGGATGTATA
switch fluorescence ratio: 0.988 ± 0.014

CATGGGGGAG
switch fluorescence ratio: 0.978 ± 0.035

TTGGAGGACA
switch fluorescence ratio: 1.06 ± 0.019

TCGTCGTTTG
switch fluorescence ratio: 0.991 ± 0.01

CTAGATTCGT
switch fluorescence ratio: 0.996 ± 0.017

CGGGTTTGGG
switch fluorescence ratio: 0.983 ± 0.016

TTTGACGGGT
switch fluorescence ratio: 1.02 ± 0.029

CTGGCGGGGA
switch fluorescence ratio: 1.02 ± 0.025

TTGGGGAATA
switch fluorescence ratio: 1.05 ± 0.035

TTTAGAGGAA
switch fluorescence ratio: 0.977 ± 0.032

TGGGGGCCCG
switch fluorescence ratio: 0.995 ± 0.047

CAGTCTGCAG
switch fluorescence ratio: 0.991 ± 0.031

CCCATGTGAG
switch fluorescence ratio: 1.09 ± 0.022

TCGGGACATA
switch fluorescence ratio: 1.02 ± 0.041

GGGAGACTCG
switch fluorescence ratio: 0.96678 ± 0.00026

GTACGCGGAC
switch fluorescence ratio: 1.07 ± 0.022

TGATAGGTCT
switch fluorescence ratio: 0.986 ± 0.03

GGTATTCATG
switch fluorescence ratio: 1.01 ± 0.011

TCAATCGCTT
switch fluorescence ratio: 1.09 ± 0.026

GCTTTTTAGG
switch fluorescence ratio: 0.964 ± 0.024

TATACAGAGG
switch fluorescence ratio: 0.983 ± 0.032

GGGTGTTTGC
switch fluorescence ratio: 1.02 ± 0.035

AAGTCTATGG
switch fluorescence ratio: 1 ± 0.054

AGAGGGGGTA
switch fluorescence ratio: 0.997 ± 0.022

GAGGATGTCT
switch fluorescence ratio: 0.99 ± 0.021

AATCTTGGGA
switch fluorescence ratio: 0.977 ± 0.028

GGTGGGTTTT
switch fluorescence ratio: 0.99 ± 0.013

TAGTAGATTA
switch fluorescence ratio: 0.982 ± 0.012

GCATCACGTA
switch fluorescence ratio: 1.17 ± 0.024

TTCTTTTGTT
switch fluorescence ratio: 1 ± 0.025

GGTGGCTTAA
switch fluorescence ratio: 0.96 ± 0.024

AGCGTCGTTC
switch fluorescence ratio: 1.03 ± 0.023

ATGGTAAACC
switch fluorescence ratio: 1.16 ± 0.066

GGGGAAAAAG
switch fluorescence ratio: 1.01 ± 0.028

GCGCGTCAAG
switch fluorescence ratio: 1.012 ± 0.009

TATTTATGGG
switch fluorescence ratio: 0.978 ± 0.023

CTTTCATCTA
switch fluorescence ratio: 1.01 ± 0.03

CCAGTATATT
switch fluorescence ratio: 1.02 ± 0.043

GGGGGGACCG
switch fluorescence ratio: 0.987 ± 0.032

AGGTGAAATT
switch fluorescence ratio: 1.11 ± 0.1

TAGGTAATTT
switch fluorescence ratio: 0.968 ± 0.041

GTTGATCTGG
switch fluorescence ratio: 1.01 ± 0.011

AAGGAAGGGG
switch fluorescence ratio: 1.14 ± 0.2

TTGATTTGTC
switch fluorescence ratio: 0.988 ± 0.011

ATGTAGATAT
switch fluorescence ratio: 1.01 ± 0.021

TTGCTTCAGC
switch fluorescence ratio: 0.994 ± 0.097

CGTTTTTGGA
switch fluorescence ratio: 0.966 ± 0.018

GTTGTGGGCG
switch fluorescence ratio: 0.977 ± 0.12

GCGAGAACGG
switch fluorescence ratio: 1.01 ± 0.034

GCTCCTGACT
switch fluorescence ratio: 1.15 ± 0.026

TTATGTTAGG
switch fluorescence ratio: 0.97498 ± 0.00083

GGTTACCGTG
switch fluorescence ratio: 0.997 ± 0.033

ACGAAATTGG
switch fluorescence ratio: 1.04 ± 0.068

GGGGTAGAAT
switch fluorescence ratio: 1.03 ± 0.061

ATGGGGCCTG
switch fluorescence ratio: 0.9828 ± 0.0078

AGCAGTGTGC
switch fluorescence ratio: 0.9981 ± 0.0027

CAGCAAAAAG
switch fluorescence ratio: 0.985 ± 0.025

GAAGCTGCTT
switch fluorescence ratio: 0.9908 ± 0.0073

CTTAGGGGAT
switch fluorescence ratio: 1.03 ± 0.047

TTCTTCCTTT
switch fluorescence ratio: 1.028 ± 0.0051

TGCCCGAGCT
switch fluorescence ratio: 1.03 ± 0.1

CTTTATGTCG
switch fluorescence ratio: 1.02 ± 0.048

AGTAGGTGGC
switch fluorescence ratio: 1 ± 0.052

GGTTTAGTCA
switch fluorescence ratio: 0.9719 ± 0.00067

GGCTGGGGTG
switch fluorescence ratio: 1.04 ± 0.071

CCGGAGATCC
switch fluorescence ratio: 2.06 ± 0.22

AACAGGGCAC
switch fluorescence ratio: 1.018 ± 0.0051

AGATTTGGGC
switch fluorescence ratio: 1.02 ± 0.031

GGGAGGGTTC
switch fluorescence ratio: 1.01 ± 0.083

GAGATATACT
switch fluorescence ratio: 1.06 ± 0.017

TCTGCCATTT
switch fluorescence ratio: 1.44 ± 0.63
